Results as given in patent publication US20180094060A1 (PIERRE FABRE MEDICAMENT, published 2018).

Target: T1, recombinant human insulin receptor (human, UniProt P06213-2 28-944, limits assumed)
T1 construct: ELISA coating protein; also called rhIR; human IR
Assay: direct ELISA, coated protein 1 µg/ml, hybridoma supernatant
Method: Further characterizations of 810D12 antibody were then performed using hybridoma supernatants such as rhIGF-1R or rmIGF-1R or rhIR ELISA. In all direct ELISAs, proteins of interest were immobilized (1 μg/ml) to the bottom of each well. After saturation, hybridoma supernatants were added to the wells. After a 1-hour incubation period and a washing step, a solution of goat anti-mouse IgG-HRP labelled polyclonal antibody was used for detection, prior to the addition of the TMB substrate. The reaction was stopped with a 1M H₂SO₄ solution before reading the OD with a spectrophotometer at a 450 nm wavelength.

T1 sequence (P06213 other isoform, or with tags, fused parts or gaps limits assumed): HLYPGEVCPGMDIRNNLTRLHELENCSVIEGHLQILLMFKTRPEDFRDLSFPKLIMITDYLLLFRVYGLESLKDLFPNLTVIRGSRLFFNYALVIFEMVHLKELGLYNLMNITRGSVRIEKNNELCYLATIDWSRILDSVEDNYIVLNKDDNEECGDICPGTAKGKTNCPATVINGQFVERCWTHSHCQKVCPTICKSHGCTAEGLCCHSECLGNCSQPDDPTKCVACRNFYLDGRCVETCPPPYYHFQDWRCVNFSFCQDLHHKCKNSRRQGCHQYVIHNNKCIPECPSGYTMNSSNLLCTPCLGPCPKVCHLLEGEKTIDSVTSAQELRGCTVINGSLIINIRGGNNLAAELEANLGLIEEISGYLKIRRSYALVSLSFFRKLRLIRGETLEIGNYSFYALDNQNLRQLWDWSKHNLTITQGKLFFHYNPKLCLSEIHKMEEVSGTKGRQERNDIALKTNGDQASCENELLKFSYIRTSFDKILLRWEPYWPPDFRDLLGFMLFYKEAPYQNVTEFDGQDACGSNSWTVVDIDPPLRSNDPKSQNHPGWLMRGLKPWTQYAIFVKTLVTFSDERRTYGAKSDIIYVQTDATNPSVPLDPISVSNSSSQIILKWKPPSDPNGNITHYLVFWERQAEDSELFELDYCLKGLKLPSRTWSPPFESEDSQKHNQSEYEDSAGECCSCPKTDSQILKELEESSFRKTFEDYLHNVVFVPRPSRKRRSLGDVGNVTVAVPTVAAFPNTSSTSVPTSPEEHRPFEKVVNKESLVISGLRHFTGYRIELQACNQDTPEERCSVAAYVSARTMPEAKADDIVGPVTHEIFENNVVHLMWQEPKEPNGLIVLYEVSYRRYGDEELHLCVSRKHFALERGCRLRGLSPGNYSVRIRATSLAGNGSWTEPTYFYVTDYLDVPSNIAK

B1: 810D12 monoclonal antibody (secreted by hybridoma CNCM I-4893) (antibody, V domains shown)
VH: EVQLQQSGPELVKPGASVKMSCKASGHTFTSYMLHWVKQKPGQGLEWLGFINPYNDVTKYNENFKGKATLTSDKSSSTAYMELNSLTSEDSAVYFCVTTAYYGNGRYFDVWGAGTTVTVSS
VL: DIQMTQTTSSLSASLGDRVTISCRASQDITNYLTWYQQKPDGTVKVLIYYTSRLYSGVPSRFSGSGSGSDYSLTINNLEQEDIATYFCQQGYSLPWTFGGGTKLEIK
notes: Murine monoclonal antibody from a Balb/C hybridoma; The ELISAs used hybridoma supernatant; also called 810D12 antibody; 810D12I-4893
binding result: no binding (tested: 5 µg/ml)
